# Measured values as given in PMC5476585.
# Target: 25-nucleosome array (human)
substance,measurement,value
Fpr4 FKBP (280-392) (from UniProt Q06205 280-392) (domain or fragment),"magnesium-dependent self-association of 25-nucleosome arrays (0.25, 0.5 and 1 mM MgCl2), chromatin in the pellet fraction after centrifugation",> 90%
